This is an account of results in publication PMC8202330, “Phosphorylation of the LIR Domain of SCOC Modulates ATG8 Binding Affinity and Specificity” (Journal of Molecular Biology, 2021).

The target of one assay is GABARAPL2 (UniProt P60520). In words: bio-layer interferometry, immobilised biotin peptide. The note with it: reference: unphosphorylated WT peptide. In general terms: In BLI a coated tip is dipped into the sample, and binding shifts an interference pattern.
A further assay has as its target GABARAP (UniProt O95166). The description is as above. To be noted: reference: unphosphorylated WT peptide.
The target in the next assay is LC3B (UniProt Q9GZQ8). The description is as above. To be noted: reference: unphosphorylated WT peptide.
Another assay addresses LC3C (UniProt Q9BXW4). Described as above. The note with it: reference: unphosphorylated WT peptide.
Another assay deals with GABARAPL1 (UniProt Q9H0R8). The description is as above. The note with it: reference: unphosphorylated WT peptide.
For a further assay, the target named is LC3A (UniProt Q9H492). The assay is described as above. To be noted: reference: unphosphorylated WT peptide.
Assay [1] has as its target SCOC LIR peptide phosphorylated at S12 and S18 (BLI) (human). In words: BLI; biotinylated LIR peptide immobilized on streptavidin biosensor, ATG8 in solution; 25 mM Tris pH 7.5, 150 mM NaCl, 0.5 mM TCEP, 0.1% Tween20, 1 mg/ml BSA; 25 °C; Kd from response against concentration.
Assay [2] addresses SCOC aa 11–25 LIR peptide (human). The assay is described as above.
In assay [3] the target is SCOC pS12 LIR peptide (human). Described as above.
In assay [4] the target is SCOC aa 6–18 LIR peptide (human). The description is as above.

GABARAP, sequence (O95166 whole entry, looked up): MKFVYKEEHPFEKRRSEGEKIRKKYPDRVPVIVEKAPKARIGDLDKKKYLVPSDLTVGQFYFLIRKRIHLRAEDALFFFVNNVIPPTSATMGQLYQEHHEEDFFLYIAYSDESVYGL
LC3C, sequence (Q9BXW4 whole entry, looked up): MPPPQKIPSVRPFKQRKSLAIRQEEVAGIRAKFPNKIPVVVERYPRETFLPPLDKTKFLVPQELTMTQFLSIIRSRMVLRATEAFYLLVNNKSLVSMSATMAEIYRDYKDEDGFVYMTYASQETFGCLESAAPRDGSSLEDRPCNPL
GABARAPL1 (for BLI), sequence (Q9H0R8 whole entry): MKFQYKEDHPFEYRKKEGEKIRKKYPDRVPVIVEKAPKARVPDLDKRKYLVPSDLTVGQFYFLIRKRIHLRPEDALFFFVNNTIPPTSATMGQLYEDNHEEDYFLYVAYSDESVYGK
GABARAPL1, sequence (Q9H0R8 whole entry, looked up): as the sequence (Q9H0R8 whole entry) above
GABARAPL2, sequence (P60520 whole entry, looked up): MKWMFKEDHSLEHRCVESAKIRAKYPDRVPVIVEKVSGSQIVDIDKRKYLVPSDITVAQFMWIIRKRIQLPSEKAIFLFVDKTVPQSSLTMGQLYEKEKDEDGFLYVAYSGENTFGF
SCOC pS12 LIR peptide (human), sequence (peptide, as listed by the source): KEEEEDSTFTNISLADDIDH
LC3C (for BLI), sequence (Q9BXW4 1-126): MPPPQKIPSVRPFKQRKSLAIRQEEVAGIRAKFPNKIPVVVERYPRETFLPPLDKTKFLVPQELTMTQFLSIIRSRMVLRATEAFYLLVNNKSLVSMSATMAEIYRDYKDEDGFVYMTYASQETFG

With “SCOC (isoform 3) LIR domain, 6-25 (from UniProt Q9UIL1-2) pT13 peptide”, the “binding against the reference” value with GABARAPL2 (sites T13), with GABARAP (sites T13), with LC3B (sites T13), in the assay with LC3C (sites T13) and in the assay with GABARAPL1 (sites T13) was “same” in each case.

In the case of “SCOC (isoform 3) LIR domain, 6-25 (from UniProt Q9UIL1-2) pT15 peptide”, the fold change entry is given as “stronger” with LC3A (sites T15); “same” with GABARAPL2 (sites T15); “same” in the assay with GABARAP (sites T15); “stronger” with LC3B (sites T15); “stronger” in the assay with LC3C (sites T15); “same” with GABARAPL1 (sites T15).

Regarding “SCOC (isoform 3) LIR domain, 6-25 (from UniProt Q9UIL1-2) pS12/pT15 peptide”, the fold change entry with LC3A (sites S12,T15), with GABARAPL2 (sites S12,T15), with GABARAP (sites S12,T15), with LC3B (sites S12,T15), in the assay with LC3C (sites S12,T15) and in the assay with GABARAPL1 (sites S12,T15) was “stronger” throughout.

The substance “LC3A (for BLI) (from UniProt Q9H492 1-121) (natural protein)” displayed a fold increase in affinity over SCOC WT LIR peptide in assay [1] of 17 fold.

“LC3C (for BLI) (from UniProt Q9BXW4 1-126) (natural protein)” yielded a fold increase in affinity over SCOC WT LIR peptide in assay [1] of 21 fold.

As for “SCOC (isoform 3) LIR domain, 6-25 (from UniProt Q9UIL1-2) pS12 peptide”, the fold change entry with LC3A (sites S12), in the assay with GABARAPL2 (sites S12), with GABARAP (sites S12), in the assay with LC3B (sites S12), in the assay with LC3C (sites S12) and with GABARAPL1 (sites S12) was “stronger” each time.

With “SCOC (isoform 3) LIR domain, 6-25 (from UniProt Q9UIL1-2) pS12/pS18 peptide”, the fold change result in the assay with LC3A (sites S12,S18), with GABARAPL2 (sites S12,S18), in the assay with GABARAP (sites S12,S18), in the assay with LC3B (sites S12,S18), with LC3C (sites S12,S18) and with GABARAPL1 (sites S12,S18) was “stronger” each time.

For “GABARAPL1 (for BLI) (from UniProt Q9H0R8 1-117) (natural protein)”, the figures for the fold decrease in affinity against SCOC WT LIR peptide in [2] and in assay [4] were 104 fold and 4 fold, respectively. In assay [3], this substance came in with a fold increase in affinity over SCOC WT LIR peptide of 2 fold.

Turning to “SCOC (isoform 3) LIR domain, 6-25 (from UniProt Q9UIL1-2) pS18 peptide”, the fold change entry is on record as “stronger” with LC3A (sites S18); “same” in the assay with GABARAPL2 (sites S18); “same” with GABARAP (sites S18); “stronger” in the assay with LC3B (sites S18); “stronger” in the assay with LC3C (sites S18); “same” with GABARAPL1 (sites S18).
